The values below come from publication PMC6476560 (PLoS ONE, 2019).

What all share (test): MST
Experiment [1] addresses fluorescently labelled Dop (deamidase of Pup; depupylase) (UniProt P9WNU9).
Experiment [2] has as its target fluorescein-labelled wild-type MtbMpa (Mycobacterium tuberculosis) (UniProt P9WQN5).
The target of experiment [3] is T1, Pup-MSMEG_1807 (pupylated alpha-chain of propionyl-CoA carboxylase of M. smegmatis) (Mycobacterium smegmatis | Mycobacterium …, UniProt A0QTE1 1-598; P9WHN5 1-64, PupE (C-terminal glutamine as glutamate)).
T1 construct: copies: 2 + 1
To be noted: both partners purified.

Experiment [4] addresses T2, Pup-MSMEG_5049 (pupylated 2-oxoglutarate dehydrogenase E1 of M. smegmatis) (Mycobacterium smegmatis | Mycobacterium …, UniProt A0R2B1;P9WHN5, PupE (C-terminal glutamine as glutamate)).
T2 construct: copies: 2 + 1
T2 sequence 1: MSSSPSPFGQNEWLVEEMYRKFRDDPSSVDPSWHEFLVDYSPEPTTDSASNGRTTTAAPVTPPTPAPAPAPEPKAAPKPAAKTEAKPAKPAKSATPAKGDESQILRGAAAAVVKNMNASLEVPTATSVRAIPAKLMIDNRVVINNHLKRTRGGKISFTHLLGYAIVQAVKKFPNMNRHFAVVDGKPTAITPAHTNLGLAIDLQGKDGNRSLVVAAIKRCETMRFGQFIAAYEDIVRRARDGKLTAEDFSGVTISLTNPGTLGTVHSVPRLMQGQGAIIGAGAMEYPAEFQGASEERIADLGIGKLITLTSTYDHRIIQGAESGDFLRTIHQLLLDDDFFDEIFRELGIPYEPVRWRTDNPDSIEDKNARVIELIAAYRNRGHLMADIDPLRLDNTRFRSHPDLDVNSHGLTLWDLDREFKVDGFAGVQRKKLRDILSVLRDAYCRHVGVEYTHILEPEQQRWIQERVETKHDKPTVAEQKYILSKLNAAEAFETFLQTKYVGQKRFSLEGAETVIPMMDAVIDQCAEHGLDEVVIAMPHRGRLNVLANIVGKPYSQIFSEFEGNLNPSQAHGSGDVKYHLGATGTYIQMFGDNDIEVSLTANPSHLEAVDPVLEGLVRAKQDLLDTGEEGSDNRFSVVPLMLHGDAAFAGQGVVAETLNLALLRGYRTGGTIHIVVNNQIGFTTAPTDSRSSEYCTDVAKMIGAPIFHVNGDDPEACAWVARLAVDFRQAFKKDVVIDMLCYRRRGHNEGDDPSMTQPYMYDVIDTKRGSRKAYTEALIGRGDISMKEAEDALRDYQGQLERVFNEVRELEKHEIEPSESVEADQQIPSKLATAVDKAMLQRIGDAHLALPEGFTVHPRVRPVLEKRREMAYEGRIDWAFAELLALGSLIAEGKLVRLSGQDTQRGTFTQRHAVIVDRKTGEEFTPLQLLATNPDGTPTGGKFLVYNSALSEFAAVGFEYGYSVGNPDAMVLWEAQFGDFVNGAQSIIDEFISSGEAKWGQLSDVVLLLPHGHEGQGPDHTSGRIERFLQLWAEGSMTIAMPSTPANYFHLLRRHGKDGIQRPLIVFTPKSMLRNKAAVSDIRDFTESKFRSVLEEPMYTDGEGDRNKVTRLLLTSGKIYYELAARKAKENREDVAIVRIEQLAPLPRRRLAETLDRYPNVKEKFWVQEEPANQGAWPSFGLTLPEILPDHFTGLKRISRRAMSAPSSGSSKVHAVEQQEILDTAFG
T2 sequence 2: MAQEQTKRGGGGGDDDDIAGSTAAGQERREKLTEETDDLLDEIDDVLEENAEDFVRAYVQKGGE
The following applies: both partners purified.

Experiment [5] concerns the target T3, fluorescein-labelled wild-type MtbMpa (Mycobacterium tuberculosis, UniProt P9WQN5 1-609).
T3 sequence: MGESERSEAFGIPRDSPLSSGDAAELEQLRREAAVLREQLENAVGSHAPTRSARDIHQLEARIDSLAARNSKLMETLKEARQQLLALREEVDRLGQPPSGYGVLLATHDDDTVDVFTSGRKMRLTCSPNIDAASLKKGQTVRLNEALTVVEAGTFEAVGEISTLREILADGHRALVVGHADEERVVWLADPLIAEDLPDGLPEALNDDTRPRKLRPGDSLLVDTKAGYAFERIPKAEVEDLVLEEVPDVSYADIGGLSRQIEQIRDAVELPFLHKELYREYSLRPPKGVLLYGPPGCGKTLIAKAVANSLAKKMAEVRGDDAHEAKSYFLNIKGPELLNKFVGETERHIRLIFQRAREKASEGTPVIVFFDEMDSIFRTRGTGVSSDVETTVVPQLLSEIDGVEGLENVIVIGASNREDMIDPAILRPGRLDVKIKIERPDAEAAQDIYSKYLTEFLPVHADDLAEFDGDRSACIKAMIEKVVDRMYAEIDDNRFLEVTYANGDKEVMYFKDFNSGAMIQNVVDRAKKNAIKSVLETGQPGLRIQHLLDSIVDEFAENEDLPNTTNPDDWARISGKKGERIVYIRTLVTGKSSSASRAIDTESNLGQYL
To be noted: both partners purified.

As for “Pup-MSMEG_2412 (pupylated pyruvate carboxylase of M. smegmatis) (from UniProt P9WHN5 1-64) (complex)”, the equilibrium dissociation constant (Kd) (usually the constant that tells how readily two partners part at equilibrium) in experiment [1] was 114 nM.

“Pup-FabD3KR (pupylated malonyl transacylase FabD, triple lysine-to-arginine variant) (from UniProt P9WNG5;P9WHN5) (complex)” yielded a Kd in experiment [2] of 240 nM.

B1: fluorescently labelled Dop (deamidase of Pup; depupylase) (enzyme)
chain: MQRIIGTEVEYGISSPSDPTANPILTSTQAVLAYAAAAGIQRAKRTRWDYEVESPLRDARGFDLSRSAGPPPVVDADEVGAANMILTNGARLYVDHAHPEYSAPECTDPLDAVIWDKAGERVMEAAARHVASVPGAAKLQLYKNNVDGKGASYGSHENYLMSRQTPFSAIITGLTPFLVSRQVVTGSGRVGIGPSGDEPGFQLSQRSDYIEVEVGLETTLKRGIINTRDEPHADADRYRRLHVIIGDANLAETSTYLKLGTTALVLDLIEEGPAHAIDLTDLALARPVHAVHAISRDPSLRATVALADGRELTGLALQRIYLDRVAKLVDSRDPDPRAADIVETWAHVLDQLERDPMDCAELLDWPAKLRLLDGFRQRENLSWSAPRLHLVDLQYSDVRLDKGLYNRLVARGSMKRLVTEHQVLSAVENPPTDTRAYFRGECLRRFGADIAAASWDSVIFDLGGDSLVRIPTLEPLRGSKAHVGALLDSVDSAVELVEQLTAEPR
Take B1: the Kd in experiment [3] stood at 339 ± 55 nM; in experiment [4] it was 121 ± 28 nM.

B2: MtbPupE (prokaryotic ubiquitin-like protein Pup with C-terminal glutamate), free (natural protein)
chain: MAQEQTKRGGGGGDDDDIAGSTAAGQERREKLTEETDDLLDEIDDVLEENAEDFVRAYVQKGGE
B2: in experiment [5], the Kd is 3310 ± 650 nM.
